Results published in patent publication US12485182B2, “Proteoglycan mimetics for enhanced wound healing, angiogenesis, and vascular repair” (The Regents of the University of California, priority 2018, dated 2025).
Non-standard residues stand in square brackets, D forms with d. No end group written: not given here. AEEA = NCCOCCOCC(=O)O

Experiments:
[1] = system: matrigel (collagen IV/laminin); assay: Surface binding of biotinylated molecules to matrigel (streptavidin-HRP); settings: for matrigel binding after incubation (deterioration of binding activity over time): after 2 weeks in 1% BSA at room temperature; for matrigel binding affinity (relative): comparison between molecules
Protocol: (§1) High-binding 96-well plates (Corning) were coated with 50 μg/mL rat tail collagen I (Corning) at 4° C. overnight or 2% reduced growth factor Matrigel (Corning #354230) in basal EBM media for 30 minutes at 37° C. and rinsed 3× with PBS before blocking non-specific binding with 1% Bovine Serum Albumin (BSA) for 1 hour at room temperature. For fibrinogen surfaces, a fibrinogen coating solution of ˜2.75 mg/mL fibrinogen (Sigma) and 5.5 μg/mL aprotinin (Sigma) was incubated at 4° C. overnight in high-binding plates. Biotinylated samples dissolved in 1% BSA were allowed to bind to the surface for 30 minutes at 37° C. on a plate shaker. After 3 washes with PBS, wells were incubated with 1:200 streptavidin-HRP in 1% BSA, rinsed 3× with PBS, developed with a 1:1 A to B color solution for 20 minutes, stopped with the addition 2N H2SO4, and read on a Spectramax M5 platereader for absorbance at 450 nm with 540 nm correction.
(§2) The ability of DS-SILY4 to bind to various protein surface coatings was investigated using streptavidin-HRP detection of bound biotinylated DS-SILY4 molecules. Here we studied collagen and fibrinogen binding properties of the proteoglycan mimics since this proposed therapy is designed to target angiogenic activity to the wound site by tethering to extracellular matrix. Using standard surface coating procedures for collagen (50 μg/mL) and matrigel (2%), ˜7.5 μg/cm^2 rat tail collagen I and ˜28 μg/cm^2 matrigel were allowed to bind to a high bind plate.

[2] = molecular target: T1, collagen I (Rattus norvegicus, UniProt P02454+P02466); assay: Surface binding of biotinylated molecules to collagen I (streptavidin-HRP); settings: for collagen I binding after incubation (deterioration of binding activity over time): after 2 weeks in 1% BSA at room temperature
T1 construct: rat tail collagen I (Corning); purchased Corning; host or cells: rat tail (tissue-extracted)
T1 sequence (P02454 152-1207 limits assumed): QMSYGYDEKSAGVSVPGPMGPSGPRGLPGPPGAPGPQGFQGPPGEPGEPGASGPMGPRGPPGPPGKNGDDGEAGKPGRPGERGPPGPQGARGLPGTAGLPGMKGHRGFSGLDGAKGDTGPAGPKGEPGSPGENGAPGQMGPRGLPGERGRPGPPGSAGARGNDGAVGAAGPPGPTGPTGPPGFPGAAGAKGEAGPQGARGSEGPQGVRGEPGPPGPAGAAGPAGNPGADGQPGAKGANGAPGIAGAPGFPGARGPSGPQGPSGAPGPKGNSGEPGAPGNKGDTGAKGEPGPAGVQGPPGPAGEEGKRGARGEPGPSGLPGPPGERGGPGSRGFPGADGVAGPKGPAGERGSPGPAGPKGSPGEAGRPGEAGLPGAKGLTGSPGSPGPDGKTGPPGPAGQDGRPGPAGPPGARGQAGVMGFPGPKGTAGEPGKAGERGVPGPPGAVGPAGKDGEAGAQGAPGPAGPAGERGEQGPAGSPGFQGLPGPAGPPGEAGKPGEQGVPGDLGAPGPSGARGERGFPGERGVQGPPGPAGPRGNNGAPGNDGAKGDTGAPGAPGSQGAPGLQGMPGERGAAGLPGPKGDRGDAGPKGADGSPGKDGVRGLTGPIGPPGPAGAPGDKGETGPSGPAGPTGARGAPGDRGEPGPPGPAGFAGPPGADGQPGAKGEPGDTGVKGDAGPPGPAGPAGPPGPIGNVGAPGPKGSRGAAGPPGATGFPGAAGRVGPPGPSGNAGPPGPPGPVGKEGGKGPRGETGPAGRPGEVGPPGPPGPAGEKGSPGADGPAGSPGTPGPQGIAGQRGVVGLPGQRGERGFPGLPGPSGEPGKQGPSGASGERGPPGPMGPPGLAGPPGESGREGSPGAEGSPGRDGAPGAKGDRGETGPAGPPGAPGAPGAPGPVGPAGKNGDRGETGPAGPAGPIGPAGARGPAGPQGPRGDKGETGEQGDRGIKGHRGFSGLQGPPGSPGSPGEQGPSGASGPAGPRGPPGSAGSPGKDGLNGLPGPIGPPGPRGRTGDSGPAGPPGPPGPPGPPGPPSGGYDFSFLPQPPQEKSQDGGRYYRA
T1 sequence (P02466 86-1125 limits assumed): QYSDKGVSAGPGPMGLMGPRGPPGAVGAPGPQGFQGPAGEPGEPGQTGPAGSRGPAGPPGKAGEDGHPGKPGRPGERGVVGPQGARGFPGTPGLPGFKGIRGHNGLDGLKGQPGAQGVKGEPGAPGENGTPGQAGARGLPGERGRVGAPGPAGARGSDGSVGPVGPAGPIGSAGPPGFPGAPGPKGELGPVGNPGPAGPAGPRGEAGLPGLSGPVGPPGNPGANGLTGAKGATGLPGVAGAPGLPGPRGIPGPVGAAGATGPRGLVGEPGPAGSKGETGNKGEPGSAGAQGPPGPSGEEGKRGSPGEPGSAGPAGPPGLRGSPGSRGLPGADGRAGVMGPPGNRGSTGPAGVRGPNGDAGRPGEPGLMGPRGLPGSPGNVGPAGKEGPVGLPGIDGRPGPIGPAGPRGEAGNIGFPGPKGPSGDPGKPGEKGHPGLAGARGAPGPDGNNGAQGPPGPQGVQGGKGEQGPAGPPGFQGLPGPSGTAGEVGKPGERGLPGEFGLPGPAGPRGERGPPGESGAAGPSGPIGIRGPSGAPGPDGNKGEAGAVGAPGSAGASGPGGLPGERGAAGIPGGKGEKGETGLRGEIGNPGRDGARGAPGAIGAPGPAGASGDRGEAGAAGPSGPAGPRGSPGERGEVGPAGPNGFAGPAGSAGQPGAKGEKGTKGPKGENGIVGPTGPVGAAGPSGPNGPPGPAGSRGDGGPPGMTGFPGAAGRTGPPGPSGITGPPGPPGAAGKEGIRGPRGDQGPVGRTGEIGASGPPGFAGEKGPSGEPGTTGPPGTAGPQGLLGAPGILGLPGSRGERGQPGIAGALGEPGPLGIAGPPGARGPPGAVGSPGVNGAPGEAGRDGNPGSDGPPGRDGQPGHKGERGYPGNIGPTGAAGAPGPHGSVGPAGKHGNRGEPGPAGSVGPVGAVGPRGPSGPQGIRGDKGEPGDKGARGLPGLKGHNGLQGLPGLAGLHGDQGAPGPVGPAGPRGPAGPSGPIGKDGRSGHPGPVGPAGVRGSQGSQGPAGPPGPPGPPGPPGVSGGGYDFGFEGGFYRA
Protocol: as §1, §2

[3] = system: HMVEC; assay: HMVEC proliferation in response to surface-bound molecules (alamarBlue); type: cell-based, human
Protocol: (§3) 50 μL, treatments dissolved in 1% BSA in PBS were added to a Biocoat Collagen I 96-well plate (Corning) and incubated for 30 minutes at 37° C. before washing 3 times with PBS to remove unbound treatment. […] To evaluate initial attachment, media was aspirated 5-8 hours after seeding and exchanged with alamarBlue® cell viability reagent (1:10, 110 μL/well, Molecular Probes) and incubated for 2.5 hours at 37° C. according to the manufacturers' protocol. 100 μL from each well was pipetted into a new plate and assayed for fluorescence at 560 nm excitation and 590 nm emission. Remaining reagent was aspirated and replaced with fresh media and the alamarBlue® viability assay was performed every 2 days thereafter for 1 week. To control for initial differences in HMVEC attachment, proliferation data is presented as the alamarBlue® fluorescence signal normalized to the signal at 8 hours.
Both soluble and bound forms of molecules would be present in a dynamic equilibrium in this initial experimental design and the two forms may produce differing effects, and thus we sought to investigate the effects of bound molecules alone. Furthermore, the bioactivity of a collagen-bound form would more directly reflect the application of a targeted pro-angiogenic therapy in a chronic wound. […]

[4] = molecular target: T2, fibrinogen (Homo sapiens, UniProt P02671+P02675+P02679); assay: Surface binding of biotinylated molecules to fibrinogen (streptavidin-HRP); settings: biotinylated molecule, absorbance
T2 construct: purchased Sigma
T2 sequence (P02671 20-629 limits assumed): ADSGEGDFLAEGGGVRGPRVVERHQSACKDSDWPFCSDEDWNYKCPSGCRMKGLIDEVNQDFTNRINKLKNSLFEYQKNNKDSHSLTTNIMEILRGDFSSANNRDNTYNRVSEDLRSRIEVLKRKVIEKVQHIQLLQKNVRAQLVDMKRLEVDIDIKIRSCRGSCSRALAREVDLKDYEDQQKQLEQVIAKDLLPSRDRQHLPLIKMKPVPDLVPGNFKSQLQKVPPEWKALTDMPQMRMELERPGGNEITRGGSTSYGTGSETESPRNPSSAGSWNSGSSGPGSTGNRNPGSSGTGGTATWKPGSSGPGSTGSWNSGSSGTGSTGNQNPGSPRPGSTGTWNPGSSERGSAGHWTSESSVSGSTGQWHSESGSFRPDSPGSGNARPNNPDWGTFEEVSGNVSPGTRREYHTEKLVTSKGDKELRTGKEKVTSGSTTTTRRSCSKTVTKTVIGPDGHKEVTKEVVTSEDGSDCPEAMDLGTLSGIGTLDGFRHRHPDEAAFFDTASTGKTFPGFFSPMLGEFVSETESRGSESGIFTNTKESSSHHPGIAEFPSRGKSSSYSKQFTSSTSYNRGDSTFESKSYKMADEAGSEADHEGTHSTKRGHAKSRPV
T2 sequence (P02675 31-491): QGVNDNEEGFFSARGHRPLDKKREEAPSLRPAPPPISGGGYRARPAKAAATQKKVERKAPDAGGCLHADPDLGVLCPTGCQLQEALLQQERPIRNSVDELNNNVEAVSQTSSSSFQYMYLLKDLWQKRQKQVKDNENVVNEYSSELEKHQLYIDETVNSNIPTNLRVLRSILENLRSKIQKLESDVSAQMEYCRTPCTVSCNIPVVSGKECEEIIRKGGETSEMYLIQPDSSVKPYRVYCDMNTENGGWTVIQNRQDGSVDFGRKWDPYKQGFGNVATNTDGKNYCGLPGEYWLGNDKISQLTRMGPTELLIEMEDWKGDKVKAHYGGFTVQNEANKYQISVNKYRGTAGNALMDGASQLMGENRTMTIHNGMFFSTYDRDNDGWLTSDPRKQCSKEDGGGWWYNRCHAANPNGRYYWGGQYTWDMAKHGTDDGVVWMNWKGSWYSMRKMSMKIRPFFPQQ
T2 sequence (P02679 27-433 limits assumed): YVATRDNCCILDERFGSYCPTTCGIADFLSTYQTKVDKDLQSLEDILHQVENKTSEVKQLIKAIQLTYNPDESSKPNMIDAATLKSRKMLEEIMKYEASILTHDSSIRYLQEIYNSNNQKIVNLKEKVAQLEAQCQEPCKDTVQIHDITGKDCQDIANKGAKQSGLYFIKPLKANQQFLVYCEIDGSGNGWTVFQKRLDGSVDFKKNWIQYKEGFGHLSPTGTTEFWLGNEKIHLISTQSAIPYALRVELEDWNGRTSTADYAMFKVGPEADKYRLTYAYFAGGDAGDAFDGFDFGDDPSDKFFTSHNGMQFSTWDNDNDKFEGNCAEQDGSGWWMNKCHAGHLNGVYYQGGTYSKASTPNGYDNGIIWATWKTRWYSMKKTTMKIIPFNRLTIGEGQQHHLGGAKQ
Protocol: as §1
The ability of DS-SILY4 to bind to various protein surface coatings was investigated using streptavidin-HRP detection of bound biotinylated DS-SILY4 molecules. Here we studied collagen and fibrinogen binding properties of the proteoglycan mimics since this proposed therapy is designed to target angiogenic activity to the wound site by tethering to extracellular matrix. […]

[5] = system: chick chorioallantoic membrane; assay: Ex ovo CAM assay, vascular invasion into collagen gels; type: in vivo; settings: both 10 μM and 20 μM embedded gels, vs blank controls
Protocol: For experiments studying vascular invasion into collagen gels, 30 μL collagen I gels with an embedded 3 mm×3 mm nylon mesh (Fisher) were used. 4-5 gels were placed on each CAM, with 2-3 treatment gels of the same type and 2 blank gels as internal controls to correct for embryo variability. In some embryos, the nylon meshes were dyed to improve visualization of the mesh and vessels growing into the gel. Large (4 cm×10 cm) nylon meshes were dyed by reacting in 226 mL of a 77 mM acetic acid (Sigma) solution with 10 drops of green food coloring (McCormick) or 250 μL of 3 mg/mL Evans blue (Alfa Aesar) at 121° C. for 15 minutes in an autoclave, and then cut to 3 mm×3 mm squares for embedding. Gels were imaged daily through a Dino-Eye AM7025X camera installed on a stereomicroscope; for images more than 2 days after gel implantation, 0.25 mL PBS was pipetted on top of gels to help visualize vessels. […]
In an attempt to better visualize new vasculature invading the implanted collagen gels, we injected ˜100 μL 1 mg/mL high molecular weight fluorescent dextran (70 kDa RITC-dextran) into the CAM vessels 7 days after transplantation, cut out integrated collagen gels and surrounding membrane, and imaged with fluorescence microscopy. […]

[6] = system: HMVEC; assay: HMVEC attachment to surface-bound molecules (alamarBlue); type: cell-based, human; settings: low cell densities, both 1 μM and 10 μM surface treatments
Protocol: as §3

[7] = system: THP-1 monocytes; assay: Attachment of THP-1 monocytes to peptide-treated surfaces; type: cell-based; settings: biotin-peptide on Avidin-coated wells
Source text: (§4) FIG. 33. Attachment of cells and platelets to LXW7 and GRGD (SEQ ID NO: 2) treated surfaces. (A) Images of attached HCAECs (left panels), THP-1 monocytes (middle panels) and platelets (right panels) on surfaces treated by D-Biotin (a-c) (control), LXW7 (d-f) or GRGD (SEQ ID NO: 2) (g-i). Scale bars in a, b, d, e, g and h are 50 μm. Scale bars in c, f and i are 20 μm. (B) The number of cells or platelets attached on different treated surfaces were quantified and statistical analyses were performed. Data were expressed as mean±standard deviation: **p<0.01 (n=4).
(§5) Using primary artery-derived ECs and blood-derived EPCs as living probes to screen One-Bead-One-Compound (OBOC) combinatorial peptide libraries, several high-affinity binding ligands against the αvβ3 integrin on the surface of EPCs/ECs were identified. […] The LXW7 peptide, when grafted to surfaces, supports adhesion and spreading of EPCs and human coronary ECs, but not platelets or monocytes. […] After washing with PBS and blocking with 1% BSA wells were ready for cell attachment with 5×10^4 HCAECs or THP-1 monocytes suspended in the respective maintenance medium, or freshly isolated platelets at a density of 5×10^7 platelets/cm^2 incubated for 16 h at 37° C., 5% CO2. […] Quantification of images was performed using the Image J software (NIH).

[8] = system: platelets; assay: Attachment of platelets to peptide-treated surfaces; type: cell-based; settings: biotin-peptide on Avidin-coated wells
Source text: as §4, §5

In the case of “(peg2V)2-DS-SILY4: pro-angiogenic decorin mimic, 2 peg2V and 4 SILY per DS (peptide 1 KLTWQELYQLKYKGI[AEEA][AEEA]GSG; peptide 2 RRANAALKAGELYKSILYGSG; also: conjugated to dermatan sulfate: 2 peg2V and 4 SILY per DS, attachment not given here)”, the “matrigel binding after incubation (deterioration of binding activity over time)” value [1] is reported as “higher concentrations are needed to achieve the same binding”, the “matrigel binding affinity (relative)” value [1] is reported as “highest collagen I and matrigel affinities” and the “collagen I binding after incubation (deterioration of binding activity over time)” value [2] is reported as “higher concentrations are needed to achieve the same binding”. The “collagen I affinity (relative)” value ([2]; comparison between molecules) was “highest collagen I and matrigel affinities”.

For “DS-(peg2V)2: dermatan sulfate with 2 peg2V peptides per DS (KLTWQELYQLKYKGI[AEEA][AEEA]GSG; also: conjugated to dermatan sulfate, 2 peg2V per DS, attachment not given here)”, the “matrigel binding affinity (relative)” value [1] was “similar”, the “collagen I affinity (relative)” value ([2]; comparison between molecules) was “higher affinity for collagen I than DS-SILY4” and the “collagen I binding capacity (relative)” value ([2]; comparison between molecules) was “highest collagen I binding capacity of all the molecules studied”.

“DS-SILY4: decorin mimic composed of a dermatan sulfate backbone and 4 SILY substitutions per DS (RRANAALKAGELYKSILYGSG; also: conjugated to dermatan sulfate, 4 SILY per DS, attachment not given here)” was tested, and the “endothelial proliferation vs untreated collagen” value ([3]; 1 μM surface treatment) was “only statistically significant over no treatment when compared in media lacking VEGF”, the “endothelial proliferation vs untreated collagen” value ([3]; 10 μM surface treatment) was “significantly improved proliferation in media with and without VEGF” and the “binding capacity to fibrinogen” value [4] was 0.30 AU. The “gel vascularity / vascularized gel area” value [5] was “very slight increase in gel vascularity that was not statistically significant over the blank controls”, the “matrigel binding after incubation (deterioration of binding activity over time)” value [1] was “increased matrigel binding capacity after the 2 week incubation” and the “binding capacity to collagen IV/laminin” value ([1]; biotinylated molecule, matrigel coating, absorbance) was 1.1 AU. For the same substance, the “decrease in HMVEC attachment compared to a BSA blocked collagen surface” value [6] was 7%, the “collagen I binding after incubation (deterioration of binding activity over time)” value [2] was “this shift was also observed” and the “binding capacity to collagen I” value ([2]; biotinylated molecule, absorbance) was 1.6 AU.

GRGD [RGD peptide, reference compound] was tested, and the “monocyte binding to treated surface” value [7] was “generally supported monocyte and platelet binding” and the “platelet binding to treated surface” value [8] was “generally supported monocyte and platelet binding”.
